Test results reported in patent US20250361296A1 (BIOCYTOGEN PHARMACEUTICALS BEIJING, published 2025).

Columns and labels:
[1] = molecular target: T1, human SIGLEC15 on CHO-S-hSIGLEC15 cells (human, UniProt Q6ZMC9 20-328); test: flow cytometry (MFI) on CHO-S-hSIGLEC15 cells; antibody sample: pH 3.5 0 h
T1 sequence: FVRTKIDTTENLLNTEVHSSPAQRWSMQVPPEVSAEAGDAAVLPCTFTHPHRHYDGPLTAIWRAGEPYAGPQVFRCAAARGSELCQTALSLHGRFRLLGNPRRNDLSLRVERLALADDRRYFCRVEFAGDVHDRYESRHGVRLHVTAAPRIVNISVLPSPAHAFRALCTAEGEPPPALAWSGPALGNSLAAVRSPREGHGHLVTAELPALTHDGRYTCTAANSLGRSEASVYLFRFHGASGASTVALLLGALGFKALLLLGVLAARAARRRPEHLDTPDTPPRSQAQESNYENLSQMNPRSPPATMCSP
Method: (§1) In the activity detection experiment, 30 μL of CHO-S-hSIGLEC15 cells were added to the culture plate, and the antibody to be tested was added in a gradient dilution ([…]), and incubated at 4° C. for 30 min. The plate was washed with PBS, and diluted secondary antibody Anti-hIgG-Fc-Alex Flour 647 (RL1-H) (1:2000) was added, incubated at 4° C. for 30 min. The plate was washed once with PBS and the cells were resuspended for flow cytometry detection. MFI value was derived by FlowJo 7.6.1 analysis to calculate EC50.

[2] = molecular target: T1, human SIGLEC15 on CHO-S-hSIGLEC15 cells; test: flow cytometry (MFI) on CHO-S-hSIGLEC15 cells; antibody sample: pH 3.5 6 h
Method: as §1

[3] = molecular target: T1, human SIGLEC15 on CHO-S-hSIGLEC15 cells; test: flow cytometry (MFI) on CHO-S-hSIGLEC15 cells; antibody sample: 40° C. 7 d
Method: as §1

[4] = molecular target: T1, human SIGLEC15 on CHO-S-hSIGLEC15 cells; test: flow cytometry (MFI) on CHO-S-hSIGLEC15 cells; antibody sample: freeze 1
Method: as §1

[5] = molecular target: T1, human SIGLEC15 on CHO-S-hSIGLEC15 cells; test: flow cytometry (MFI) on CHO-S-hSIGLEC15 cells; antibody sample: 0 d
Method: as §1

[6] = molecular target: T1, human SIGLEC15 on CHO-S-hSIGLEC15 cells; test: flow cytometry (MFI) on CHO-S-hSIGLEC15 cells; antibody sample: 4° C. 7 d
Method: as §1

[7] = molecular target: T1, human SIGLEC15 on CHO-S-hSIGLEC15 cells; test: flow cytometry (MFI) on CHO-S-hSIGLEC15 cells; antibody sample: freeze 10
Method: as §1

[8] = molecular target: T1, human SIGLEC15 on CHO-S-hSIGLEC15 cells; test: flow cytometry (MFI) on CHO-S-hSIGLEC15 cells; antibody sample: 25° C. 7 d
Method: as §1

B1: one-armed anti-SIGLEC15 antibody 10C9-S, human IgG1-N297A (antibody)
heavy: not shown
chain: DKTHTCPPCPAPELLGGPSVFLFPPKPKDTLMISRTPEVTCVVVDVSHEDPEVKFNWYVDGVEVHNAKTKPREEQYASTYRVVSVLTVLHQDWLNGKEYKCKVSNKALPAPIEKTISKAKGQPREPQVCTLPPSREEMTKNQVSLSCAVKGFYPSDIAVEWESNGQPENNYKTTPPVLDSDGSFFLVSKLTVDKSRWQQGNVFSCSVMHEALHNHYTQKSLSLSPGK
light: DIQLTQSPLSSPVTLGQPASISCRSSQSLVNSDGETFLSWLQQRPGQPPRLLIYKISNRFSGVPDRFSGSGAGTDFTLKISRVEAEDVGVYYCMQATQFPHTFGQGTKLEIKRTVAAPSVFIFPPSDEQLKSGTASVVCLLNNFYPREAKVQWKVDNALQSGNSQESVTEQDSKDSTYSLSSTLTLSKADYEKHKVYACEVTHQGLSSPVTKSFNRGEC
notes: One-armed format; It has a full-length heavy chain with the knob (T366W), a single Fc fragment with the hole mutations (T366S, L368A, Y407V), and a full-length light chain
- EC50 [1]: 1.66 µg/mL
- EC50 [2]: 2.05 µg/mL
- EC50 [3]: 1.55 µg/mL
- EC50 [4]: 1.46 µg/mL
- EC50 [5]: 1.79 µg/mL
- EC50 [6]: 1.63 µg/mL
- EC50 [7]: 1.67 µg/mL
- EC50 [8]: 1.64 µg/mL
